Series [1] has as its target N4 mini-vRNAP K670A K670A (mini-vRNAP numbering) (Bacteriophage N4) (UniProt Q859P9). Nature of the series: filter. Conditions: wild-type affinity; method inferred.
Series [2] deals with T1, N4 mini-vRNAP (His-tagged) (Bacteriophage N4, UniProt Q859P9 SEQ:34-1143).
T1 chain: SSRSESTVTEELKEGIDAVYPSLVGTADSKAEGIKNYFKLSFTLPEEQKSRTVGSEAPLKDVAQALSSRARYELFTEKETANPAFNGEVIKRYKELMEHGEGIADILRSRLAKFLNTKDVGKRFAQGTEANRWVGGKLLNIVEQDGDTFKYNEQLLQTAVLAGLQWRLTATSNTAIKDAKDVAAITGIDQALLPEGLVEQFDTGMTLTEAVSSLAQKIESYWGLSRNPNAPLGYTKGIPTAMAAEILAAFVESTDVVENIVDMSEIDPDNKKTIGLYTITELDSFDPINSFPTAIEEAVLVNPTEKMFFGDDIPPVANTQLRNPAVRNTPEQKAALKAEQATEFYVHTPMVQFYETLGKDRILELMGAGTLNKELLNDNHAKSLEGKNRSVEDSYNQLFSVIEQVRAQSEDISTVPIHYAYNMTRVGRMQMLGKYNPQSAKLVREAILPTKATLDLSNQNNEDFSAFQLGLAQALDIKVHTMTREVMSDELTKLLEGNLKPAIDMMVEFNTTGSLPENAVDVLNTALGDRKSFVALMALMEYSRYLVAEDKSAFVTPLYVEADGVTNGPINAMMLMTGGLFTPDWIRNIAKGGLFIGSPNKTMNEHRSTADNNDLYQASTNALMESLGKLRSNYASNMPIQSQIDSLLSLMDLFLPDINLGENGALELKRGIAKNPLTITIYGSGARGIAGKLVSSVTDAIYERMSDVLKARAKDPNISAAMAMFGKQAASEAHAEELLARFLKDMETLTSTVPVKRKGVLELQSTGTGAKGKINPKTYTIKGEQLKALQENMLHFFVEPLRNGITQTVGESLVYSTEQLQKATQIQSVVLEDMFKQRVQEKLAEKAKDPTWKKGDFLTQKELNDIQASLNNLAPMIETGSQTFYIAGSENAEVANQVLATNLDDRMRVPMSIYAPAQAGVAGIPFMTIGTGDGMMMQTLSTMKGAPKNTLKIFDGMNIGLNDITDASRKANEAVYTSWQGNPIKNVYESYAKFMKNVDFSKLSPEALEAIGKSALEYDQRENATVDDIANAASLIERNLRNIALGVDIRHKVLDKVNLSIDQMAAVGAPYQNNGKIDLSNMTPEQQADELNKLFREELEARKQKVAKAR
As to the kind of experiment: filter; wild-type affinity; UV crosslinks. Conditions: tags: N-terminal hexahistidine (pBAD); label: 32P end-label; hairpin. The source says:
To study the sequence determinants of promoter binding, 20 base-long promoter oligonucleotides, containing the wild-type vRNAP promoter P2 sequence and substituted at every position with a single 5-Iodo-dU, were used. Whenever substitutions were made in the stem, the corresponding pairing base was changed to A. These oligonucleotides were ³²P end-labeled and used to determine the enzyme's affinity for promoter DNAs by a filter binding assay and the ability to crosslink to mini-vRNAP upon UV irradiation at 320 nm.

Series [3] has as its target T2, N4 mini-vRNAP Y678F (Bacteriophage N4, UniProt Q859P9 SEQ:34-1143).
T2 chain: T1 chain with Y682F
As to the kind of experiment: UV crosslinking as well as wild type. The settings on record: tags: N-terminal hexahistidine (pBAD); label: 32P end-label; hairpin.

Changes are numbered by the printed parent chain.

The molecule “TCCAAAAGAAGCGGAGCTTC [P2 wild-type 20-mer promoter oligo]” showed a binding signal (fold of wild type) in series [1] of 1.
Regarding TTCAAAAGAAGCGGAGCTTC (ssDNA, 5-iodo-dU at +2 [2 (5-iodo-dU, promoter position +2)]) [P2 5-IdU at +2], the binding result in series [2] is “binds”.
On to TCCAAAAGAAGCGTAGCTTC (ssDNA, 5-iodo-dU at -11 [14 (5-iodo-dU, promoter position -11)]) [P2 5-IdU at -11], for which, in series [3], the binding result is reported as “binds”.
Regarding TCTAAAAGAAGCGGAGCTTC (ssDNA, 5-iodo-dU at +1 [3 (5-iodo-dU, promoter position +1)]) [P2 5-IdU at +1], in series [2], the binding result was “binds”.
Consider TCCAAAAGAAGCGGAGCTTC (ssDNA, 5-iodo-dU at +3 [1 (5-iodo-dU, promoter position +3)]) [P2 5-IdU at +3], for which the binding result in series [3] and in series [2] was “binds” in each case.

These data come from patent US20040191812, “Target-dependent transcription using deletion mutants of N4 RNA polymerase” (published 2004).
